{
  "source": "patent US7718626B2",
  "about": "“ErbB3 binding protein compositions and methods of use” (University of Maryland, Baltimore, priority 2005, dated 2010)",
  "key": {"[1]": {"tested_on": "AR-regulated gene mRNA in LNCaP cells", "assay": "Real-time quantitative reverse-transcription PCR of LNCaP ebp1 transfectants", "type": "cell-based, human", "procedure": "Real-Time Quantitative Reverse-Transcription PCR: The method of […] et al. (Nakanishi et al., 2003, Quantitative Analysis of Breast Cancer Resistance Protein and Cellular Resistance to Flavopiridol in Acute Leukemia Patients, Clin. Cancer Res., 9: 3320-3328) was used as previously described. […] Real-time quantitative RT-PCR was then performed on the LightCycler (Roche, Indianapolis, Ind.) platform to determine the relative mRNA levels of Ebp1, AR, kallikrein-2 and POV-1. The following forward and reverse primers were selected using Primer Express software and synthesized by Core Laboratory of University of Maryland School of Medicine: Ebp1, sense: […] [NT] ID NO: 6) and antisense: 5° […] ID NO: 7), Kallikrein-2, sense: [NT] ID NO: 8) and antisense: [NT] ID NO: 9), POV-1, sense: [NT] ID NO: 10) and antisense: [NT] ID NO: 11), Actin, sense: [NT] ID NO: 12) and antisense […] ID NO: 13). An SRBR Green PCR Kit was used (Applied Biosystems, Foster City, Calif.), and the analyses were performed in duplicate or triplicate in a total volume of 15 μl including 0.9 μl of 25 mM MgCl2, 1.5 μl SYBR Green I, 0.3 μl Enzyme Mix, 0.75 μl of each primer (50 ng/μl), and 2 μl of cDNA synthesized with random hexamers. Target mRNA values were normalized using actin mRNA as an internal control. The relative quantitation of gene expression was performed using the comparative ΔΔ Ct (threshold method) using β-actin as an internal control ([…] et al., 2002, The Nonsteroidal Anti-Inflammatory Drug Sulindac Causes Down-Regulation of Signal Transducer and Activator of Transcription 3 in Human Oral Squamous Cell Carcinoma Cells, Cancer Research, 62:1004-1007). The results of the microarray analysis were validated using real-time quantitative reverse-transcription PCR, Western blot, and ELISA methods. […] The expression of POV-1 mRNA and protein were each decreased about two-fold. PSA secretion in the conditioned media of ebp1 and vector control cells was assessed by ELISA. […] Finally, […]-2 mRNA expression was decreased approximately 40%."}, "[2]": {"tested_on": "LNCaP cells", "assay": "Cell growth in complete media", "type": "cell-based, human", "procedure": "Cell Growth Assays: To measure growth in complete media, cells (2×10^4) were seeded in triplicate in individual wells of 12-well tissue culture plates in RPMI-1640 with 10% FBS and cultured for the indicated number of days. Cells were trypsinized, stained with Trypan Blue (0.4%), and counted in a hemacytometer. For soft agar growth assays, increasing concentrations of cells (as indicated) were plated in 35 mm petri dishes in complete media and 0.3% Difco Bacto Agar over an 0.5% agar layer. Colonies were counted after 10 days of incubation. For studies assessing the effect of dihydrotestosterone (DHT) on cell growth, cells (2×10^4) were plated in 12-well plates in complete media. After a 24-hour attachment period, the medium was replaced with steroid-free medium [phenol red-free RPMI 1640 and 5% charcoal-stripped FBS (Sigma)] for 48 hours. The final concentration of testosterone in the steroid-reduced media was less than 5 pM. After 48 hours of steroid depletion, cells were re-fed with fresh steroid-reduced medium with or without the indicated concentrations of DHT and/or bicalutamide (10 μM), and total cell numbers were assessed 7 days later.\nGrowth Characteristics of LNCaP ebp1 transfectants: The growth rate of the ebp1-transfected cells in complete media was compared to that of cells transfected with the empty vector. […]"}},
  "data": [
    {"molecule": "Ebp1: ErbB3 binding protein (SEQ ID NO: 2), tested by stable ectopic expression (ebp1 transfection) in LNCaP cells (protein, Homo Sapien) MSGEDEQQEQTIAEDLVVTKYKMGGDIANRVLRSLVEASSSGVSVLSLCEKGDAMIMEETGKIFKKEKEMKKGIAFPTSISVNNCVCHFSPLKSDQDYILKEGDLVKIDLGVHVDGFIANVAHTFVVDVAQGTQVTGRKADVIKAAHLCAEAALRLVKPGNQNTQVTEAWNKVAHSFNCTPIEGMLSHQLKQHVIDGEKTIIQNPTDQQKKDHEKAEFEVHEVYAVDVLVSSGEGKAKDAGQRTTIYKRDPSKQYGLKMKTSRAFFSEVERRFDAMPFTLRAFEDEKKARMGVVECAKHELLQPFNVLYEKEGEFVAQFKFTVLLMPNGPMRITSGPFEPDLYKSEMEVQDAELKALLQSSASRKTQKKKKKKASKTAENPTSGETLEENEAGD", "values": [
      {"measurement": "POV-1 mRNA decrease", "setting": "[1]", "result": "about two-fold"},
      {"measurement": "kallikirein-2 mRNA expression decrease", "setting": "[1]", "result": "approximately 40%"},
      {"measurement": "AR mRNA down-regulation", "setting": "[1]; real-time PCR", "result": "more than 2 fold"},
      {"measurement": "growth rate in complete media", "setting": "[2]; ebp1 transfectants vs vector control, p<0.05", "result": "significantly decreased"},
      {"measurement": "doubling time", "setting": "[2]; ebp1 transfectants, complete media (vector control 48 hours)", "result": 72, "unit": "h"}
    ]}
  ]
}
